Laboratory results from IntAct's records for PubMed 23260655.

B1: Chromobox protein homolog 8 (Homo sapiens), Q9HC52 (parent)
chain: MELSAVGERVFAAEALLKRRIRKGRMEYLVKWKGWSQKYSTWEPEENILDARLLAAFEEREREMELYGPKKRGPKPKTFLLKAQAKAKAKTYEFRSDSARGIRIPYPGRSPQDLASTSRAREGLRNMGLSPPASSTSTSSTCRAEAPRDRDRDRDRDRERDRERERERERERERERERERGTSRVDDKPSSPGDSSKKRGPKPRKELPDPSQRPLGEPSAGLGEYLKGRKLDDTPSGAGKFPAGHSVIQLARRQDSDLVQCGVTSPSSAEATGKLAVDTFPARVIKHRAAFLEAKGQGALDPNGTRVRHGSGPPSSGGGLYRDMGAQGGRPSLIARIPVARILGDPEEESWSPSLTNLEKVVVTDVTSNFLTVTIKESNTDQGFFKEKR

Variants of: B1
Settings: with af9_mouse Mllt3, A2AM29
Chain of af9_mouse Mllt3, A2AM29 (A2AM29 whole entry): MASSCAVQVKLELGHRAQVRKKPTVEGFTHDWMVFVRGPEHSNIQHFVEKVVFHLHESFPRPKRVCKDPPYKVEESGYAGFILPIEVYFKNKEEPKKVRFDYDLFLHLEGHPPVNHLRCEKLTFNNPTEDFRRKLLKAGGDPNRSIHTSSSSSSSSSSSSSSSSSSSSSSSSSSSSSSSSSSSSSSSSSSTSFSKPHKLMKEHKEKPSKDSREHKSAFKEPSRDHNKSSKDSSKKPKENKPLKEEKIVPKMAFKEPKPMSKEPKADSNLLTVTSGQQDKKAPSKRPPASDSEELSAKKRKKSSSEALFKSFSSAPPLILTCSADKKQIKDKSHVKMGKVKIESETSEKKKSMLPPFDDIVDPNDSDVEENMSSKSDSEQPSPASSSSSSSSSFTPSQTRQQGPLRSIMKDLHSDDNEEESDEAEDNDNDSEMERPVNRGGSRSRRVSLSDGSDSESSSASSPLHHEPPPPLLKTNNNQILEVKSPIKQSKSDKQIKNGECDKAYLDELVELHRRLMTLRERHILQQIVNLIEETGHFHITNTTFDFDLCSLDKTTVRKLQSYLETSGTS
In the case of A335V, the “effect of a mutation on the interaction” value is reported as “increasing interaction strength”.
